Test results reported in paper PMC3976300.

Tests used:
Assay in all cases: intrinsic fluorescence quenching
[1] = tested on: All4779 (Anabaena sp. PCC7120); conditions: Fluorescence: 20 mM Tris-HCl pH 8, 1 mM EDTA, 20 or 100 mM NaCl, room temperature, EMSA: 20 mM Tris-HCl pH 8, 1 mM MgCl2, 100 mM KCl, 8 mM DTT, 4% sucrose …
[2] = tested on: Alr0088 (Anabaena sp. PCC7120); conditions: Fluorescence: 20 mM Tris-HCl pH 8, 1 mM EDTA, 20 or 100 mM NaCl, room temperature, EMSA: 20 mM Tris-HCl pH 8, 1 mM MgCl2, 100 mM KCl, 8 mM DTT, 4% sucrose …
[3] = tested on: EcoSSB (Escherichia coli); conditions: 20 mM NaCl; Fluorescence: 20 mM Tris-HCl pH 8, 1 mM EDTA, 20 or 100 mM NaCl, room temperature; EMSA: 20 mM Tris-HCl pH 8, 1 mM MgCl2, 100 mM KCl, 8 mM DTT, 4% sucrose …
[4] = 20 mM NaCl, reciprocal of poly(dT) concentration at 50% fluorescence

Substance	binding signal ([1]; high NaCl)	binding signal ([2]; high NaCl)	Ka [1, 4]	Ka [2, 4]	Ka [3]
M13 ssDNA	18 % quenching	40 % quenching			
poly(dT)			5.13e+07 M⁻¹	2.56e+06 M⁻¹	6.76e+07 M⁻¹
